Earlier results in article PMC6021539.

Biological target: Adrenomedullin (Homo sapiens) (UniProt P35318)

## CXCR7 (from UniProt P25106)
  Kd: 190 nM
